T1: His-bHLH34 (Arabidopsis thaliana, UniProt Q9LTC7 1-320)
T1 sequence: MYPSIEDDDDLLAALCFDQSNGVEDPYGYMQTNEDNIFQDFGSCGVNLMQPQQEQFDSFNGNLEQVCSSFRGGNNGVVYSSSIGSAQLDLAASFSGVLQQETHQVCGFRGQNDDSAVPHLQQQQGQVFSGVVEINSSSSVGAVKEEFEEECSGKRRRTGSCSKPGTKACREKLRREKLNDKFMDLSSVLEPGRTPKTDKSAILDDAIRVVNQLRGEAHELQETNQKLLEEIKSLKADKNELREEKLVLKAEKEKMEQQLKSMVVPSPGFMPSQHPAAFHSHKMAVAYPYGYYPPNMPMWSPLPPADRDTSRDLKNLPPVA

T2: His-bHLH34 (Arabidopsis thaliana) (UniProt Q9LTC7)
T2 sequence: T1 sequence

B1: E-box (dsDNA)
DNA 1: CCGGCCACTTGTGCCA
DNA 2: TGGCACAAGTGGCCGG
B2: DBE1 m3 (dsDNA)
DNA 1: AGAAGATACGGC
DNA 2: GCCGTATCTTCT
B3: DBE6 (dsDNA)
DNA 1: GAGGGAGATTCA
DNA 2: TGAATCTCCCTC
B4: DBE5 (dsDNA)
DNA 1: AAATGAGATCAT
DNA 2: ATGATCTCATTT
B5: DBE1 m4 (dsDNA)
DNA 1: AGAAGAGTCGGC
DNA 2: GCCGACTCTTCT
B6: DBE1 (dsDNA)
DNA 1: AGAAGAGACGGC
DNA 2: GCCGTCTCTTCT
B7: DBE2 (dsDNA)
DNA 1: CCAGGAGAGGTT
DNA 2: AACCTCTCCTGG
B8: DBE1 m2 (dsDNA)
DNA 1: AGAAGTGACGGC
DNA 2: GCCGTCACTTCT
B9: DBE1 m1 (dsDNA)
DNA 1: AGAATAGACGGC
DNA 2: GCCGTCTATTCT
B10: DBE4 (dsDNA)
DNA 1: CTTAGAGAGGAG
DNA 2: CTCCTCTCTAAG
B11: DBE3 (dsDNA)
DNA 1: AAATGAGAGGAT
DNA 2: ATCCTCTCATTT
B12: DBE1 unlabeled competitor (dsDNA)
DNA 1: AGAAGAGACGGC
DNA 2: GCCGTCTCTTCT

Molecular target: T1, His-bHLH34
Test: EMSA; 10 mM Tris-HCl pH 7.5, 50 mM KCl, 1 mM EDTA, 1 mM DTT, 2.5% glycerol, 1 ug poly(dI-dC), 100 ng protein, 0.3 pmol DNA in 20 uL; 25 C 20 min; 5% native PAGE in TBE at 4 C
Details: protein: recombinant; tags: His tag (pET300/NT-DEST); chain copies: 2; label: 32P; blunt

Row | Molecule | binding result
1 | B1 | binds
2 | B2 | no binding
3 | B3 | binds
4 | B4 | binds
5 | B5 | no binding
6 | B6 | binds
7 | B7 | binds
8 | B8 | no binding
9 | B9 | no binding
10 | B10 | binds
11 | B11 | binds

Molecular target: T1, His-bHLH34
Test: competition; 10-100x excess against 32P-DBE1; 10 mM Tris-HCl pH 7.5, 50 mM KCl, 1 mM EDTA, 1 mM DTT, 2.5% glycerol, 1 ug poly(dI-dC), 100 ng protein, 0.3 pmol DNA in 20 uL; 25 C 20 min; 5% native PAGE in TBE at 4 C
Details: protein: recombinant; tags: His tag (pET300/NT-DEST); chain copies: 2; blunt

Row | Molecule | binding result
12 | B12 | binds

Molecular target: T2, His-bHLH34 (Arabidopsis thaliana)
Test: EMSA
Details: 10 mM Tris-HCl pH 7.5, 50 mM KCl, 1 mM EDTA, 1 mM DTT, 2.5% glycerol, 1 ug poly(dI-dC), 100 ng protein, 0.3 pmol DNA in 20 uL; 25 C 20 min; 5% native PAGE in …

Row | Molecule | binding
13 | GAAGAAGAGACGGCCTATCACGCTTCTGTAGCCTCCACCAGGAGAGGTTGGTCTAGAACAGTACACCACTTCCCAATCTGCACCAAATCCCACAAGTTCACATATTGATCCAAGGAAGAAGCAA (double strand) [P1 fragment (-999 to -875)] | binds
14 | TATTCGCAACCTATTCACAATTCACAAACTTTCAAATAAATGCGCCAAACTAAGTCAGATCCTCAAGATCGGTGTATACAAATCAGAAATCGTTACACAACCTTAGAGAGGAGGGTAGAAATGAGATCATCAGGTCCAGT (double strand) [P3 fragment (-734 to -595)] | binds
15 | AACCACGGACTCAGATCCATTCCTCGAGACGTTTGAATCTCCCTCTTCAATATTCAATCCCGTACAAGGTGTTACGGAGTAGGAGTAGAAGATTAGGACTCGTCGTCAGTTCTGTTTCAGCTCCCAACGTTGAGCTCCGT (double strand) [P4 fragment (-594 to -456)] | binds
16 | GTGATGGAGGTGTGACGCTAAGCCCTGAGCAGCACAAGGAGGTGGCACAAGTGGCCGGAGAGCTTCAAAAGTACTGTGTCAAGGAGCCTGTCAAAAATCCTCTCATTTTTGGAGGTAAAAGTGTAAGAACCTAGCTGCCA (double strand) [P2 fragment (-874 to -735)] | binds
